# Measurements reported in IntAct's records for PubMed 22020124.
# B1: Centrosomal P4.1-associated protein (Homo sapiens), Q9HC77 (parent)
# chain: MFLMPTSSELNSGQNFLTQWMTNPSRAGVILNRGFPILEADKEKRAAVDISTSFPIKGTHFSDSFSFINEEDSLLEEQKLESNNPYKPQSDKSETHTAFPCIKKGPQVAACHSAPGHQEENKNDFIPDLASEFKEGAYKDPLFKKLEQLKEVQQKKQEQLKRQQLEQLQRLMEEQEKLLTMVSGQCTLPGLSLLPDDQSQKHRSPGNTTTGERATCCFPSYVYPDPTQEETYPSNILSHEQSNFCRTAHGDFVLTSKRASPNLFSEAQYQEAPVEKNNLKEENRNHPTGESILCWEKVTEQIQEANDKNLQKHDDSSEVANIEERPIKAAIGERKQTFEDYLEEQIQLEEQELKQKQLKEAEGPLPIKAKPKQPFLKRGEGLARFTNAKSKFQKGKESKLVTNQSTSEDQPLFKMDRQQLQRKTALKNKELCADNPILKKDSKARTKSGSVTLSQKPKMLKCSNRKSLSPSGLKIQTGKKCDGQFRDQIKFENKVTSNNKENVTECPKPCDTGCTGWNKTQGKDRLPLSTGPASRLAAKSPIRETMKESESSLDVSLQKKLETWEREKEKENLELDEFLFLEQAADEISFSSNSSFVLKILERDQQICKGHRMSSTPVKAVPQKTNPADPISHCNRSEDLDHTAREKESECEVAPKQLHSLSSADELREQPCKIRKAVQKSTSENQTEWNARDDEGVPNSDSSTDSEEQLDVTIKPSTEDRERGISSREDSPQVCDDKGPFKDTRTQEDKRRDVDLDLSDKDYSSDESIMESIKHKVSEPSRSSSLSLSKMDFDDERTWTDLEENLCNHDVVLGNESTYGTPQTCYPNNEIGILDKTIKRKIAPVKRGEDLSKSRRSRSPPTSELMMKFFPSLKPKPKSDSHLGNELKLNISQDQPPGDNARSQVLREKIIELETEIEKFKAENASLAKLRIERESALEKLRKEIADFEQQKAKELARIEEFKKEEMRKLQKERKVFEKYTTAARTFPDKKEREEIQTLKQQIADLREDLKRKETKWSSTHSRLRSQIQMLVRENTDLREEIKVMERFRLDAWKRAEAIESSLEVEKKDKLANTSVRFQNSQISSGTQVEKYKKNYLPMQGNPPRRSKSAPPRDLGNLDKGQAASPREPLEPLNFPDPEYKEEEEDQDIQGEISHPDGKVEKVYKNGCRVILFPNGTRKEVSADGKTITVTFFNGDVKQVMPDQRVIYYYAAAQTTHTTYPEGLEVLHFSSGQIEKHYPDGRKEITFPDQTVKNLFPDGQEESIFPDGTIVRVQRDGNKLIEFNNGQRELHTAQFKRREYPDGTVKTVYANGHQETKYRSGRIRVKDKEGNVLMDTEL
# partner: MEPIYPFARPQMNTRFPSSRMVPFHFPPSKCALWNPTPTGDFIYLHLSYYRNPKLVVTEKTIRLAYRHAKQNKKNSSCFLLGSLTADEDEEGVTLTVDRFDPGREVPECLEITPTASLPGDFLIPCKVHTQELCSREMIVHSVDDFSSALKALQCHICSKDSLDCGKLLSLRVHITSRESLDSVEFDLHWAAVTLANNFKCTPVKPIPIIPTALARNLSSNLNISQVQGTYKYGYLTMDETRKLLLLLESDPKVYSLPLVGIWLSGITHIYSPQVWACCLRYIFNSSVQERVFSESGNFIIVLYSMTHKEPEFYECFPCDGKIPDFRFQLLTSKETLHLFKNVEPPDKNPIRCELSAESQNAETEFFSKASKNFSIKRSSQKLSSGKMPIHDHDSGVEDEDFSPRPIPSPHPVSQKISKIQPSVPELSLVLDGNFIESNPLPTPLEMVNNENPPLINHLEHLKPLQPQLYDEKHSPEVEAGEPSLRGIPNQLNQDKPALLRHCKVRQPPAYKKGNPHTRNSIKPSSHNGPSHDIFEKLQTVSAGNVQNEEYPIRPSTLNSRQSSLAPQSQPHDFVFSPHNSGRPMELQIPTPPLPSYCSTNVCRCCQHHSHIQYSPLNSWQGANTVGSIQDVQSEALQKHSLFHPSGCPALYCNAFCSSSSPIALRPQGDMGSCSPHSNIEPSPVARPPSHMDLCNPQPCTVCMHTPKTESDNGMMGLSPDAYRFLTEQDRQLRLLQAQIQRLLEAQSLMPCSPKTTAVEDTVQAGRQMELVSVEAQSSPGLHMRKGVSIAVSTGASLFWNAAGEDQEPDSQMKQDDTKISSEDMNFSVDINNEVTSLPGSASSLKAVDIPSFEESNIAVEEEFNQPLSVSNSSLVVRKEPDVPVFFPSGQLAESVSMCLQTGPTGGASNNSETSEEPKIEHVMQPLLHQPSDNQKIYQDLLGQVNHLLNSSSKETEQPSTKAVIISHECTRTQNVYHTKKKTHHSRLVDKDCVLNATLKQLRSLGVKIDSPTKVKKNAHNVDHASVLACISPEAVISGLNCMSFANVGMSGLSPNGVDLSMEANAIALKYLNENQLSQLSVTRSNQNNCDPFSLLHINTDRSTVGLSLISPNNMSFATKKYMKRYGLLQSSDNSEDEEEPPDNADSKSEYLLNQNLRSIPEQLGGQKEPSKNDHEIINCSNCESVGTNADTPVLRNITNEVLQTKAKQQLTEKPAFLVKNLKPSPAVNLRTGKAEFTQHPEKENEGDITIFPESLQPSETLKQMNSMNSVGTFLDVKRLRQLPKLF
# Variants of: B1
# Conditions: with stil_human STIL
row,effect of a mutation on the interaction,Variant
1,decreasing interaction,E1235V

# Variants of: B1
# Conditions: with stil_human STIL
# Remark: another data set of the same source
row,effect of a mutation on the interaction,Variant
1,disrupting interaction,E1235V
